Measured values published in article doi:10.1101/2024.05.21.594841 (bioRxiv, 2024).

Biological target: T1, Mpd2p (S. cerevisiae, UniProt Q99316 23-277)
T1 sequence: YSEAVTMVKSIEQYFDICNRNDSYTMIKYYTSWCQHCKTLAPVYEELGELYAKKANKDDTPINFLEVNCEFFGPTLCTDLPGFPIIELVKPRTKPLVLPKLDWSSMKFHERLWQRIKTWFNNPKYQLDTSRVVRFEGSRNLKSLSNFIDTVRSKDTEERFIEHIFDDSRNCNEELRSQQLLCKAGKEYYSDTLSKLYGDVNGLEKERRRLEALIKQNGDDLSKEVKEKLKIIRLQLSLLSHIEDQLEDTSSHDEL
Assay: split reporter

B1: Lhs1p (natural protein)
chain: AVLGVDYGQQNIKAIVVSPQAPLELVLTPEAKRKEISGLSIKRLPGYGKDDPNGIERIYGSAVGSLATRFPQNTLLHLKPLLGKSLEDETTVTLYSKQHPGLEMVSTNRSTIAFLVDNVEYPLEELVAMNVQEIANRANSLLKDRDARTEDFVNKMSFTIPDFFDQHQRKALLDASSITTGIEETYLVSEGMSVAVNFVLKQRQFPPGEQQHYIVYDMGSGSIKASMFSILQPEDTTQPVTIEFEGYGYNPHLGGAKFTMDIGSLIENKFLETHPAIRTDELHANPKALAKINQAAEKAKLILSANSEASINIESLINDIDFRTSITRQEFEEFIADSLLDIVKPINDAVTKQFGGYGTNLPEINGVILAGGSSRIPIVQDQLIKLVSEEKVLRNVNADESAVNGVVMRGIKLSNSFKTKPLNVVDRSVNTYSFKLSNESELYDVFTRGSAYPNKTSILTNTTDSIPNNFTIDLFENGKLFETITVNSGAIKNSYSSDKCSSGVAYNITFDLSSDRLFSIQEVNCICQSENDIGNSKQIKNKGSRLAFTSEDVEIKRLSPSERSRLHEHIKLLDKQDKERFQFQENLNVLESNLYDARNLLMDDEVMQNGPKSQVEELSEMVKVYLDWLEDASFDTDPEDIVSRIREIGILKKKIELYMDSAKEPLNSQQFKGMLEEGHKLLQAIETHKNTVEEFLSQFETEFADTIDNVREEFKKIKQPAYVSKALSTWEETLTSFKNSISEIEKFLAKNLFGEDLREHLFEIKLQFDMYRTKLEEKLRLIKSGDESRLNEIKKLHLRNFRLQKRKEEKLKRKLEQEKSRNNNETESTVINSADDKTTIVNDKTTESNPSSEEDILHDEL
- normalized interacting score: > 40%
